Source: patent US12551573B2, “Compositions and methods for the targeting of PCSK9” (Scribe Therapeutics Inc., priority 2022, dated 2026)
Changes are numbered by the printed parent chain.

B1: DOMAIN_17497 (protein, listed as Monodelphis domestica)
chain: AQEVVSFKDVAVDFTREEWRLLSPPQKELYKEVMLENARNLLSVGLPAPSEEVISYLEQREAPWILEQEGLRNCCSEGEIR
B2: DOMAIN_17474 (protein, listed as Monodelphis domestica)
chain: QVPVTFEDLAVRFSAEEWHLLEEWQREFHRDVMRENYEMLVSLGTAQLLPLSAFLSLTEPQEDMGDNGCSDGEWERPGGGL
B3: DOMAIN_17234 (protein)
chain: PENGVTFEDIALYFSWEEWKLLDEAQRRLYHDVMLENFALISSLGVWSGEENVEASFEQSVSVVMSQVRTSKEPSSSQKTH
modifications: Delphinapterus leucas
B4: DOMAIN_17689 (protein)
chain: MAFEDVAVYFSQEEWGLLDTAQRALYRRVMLENFTLVTSLGLSTSRPHVVIQLERGEEPWVPSGKDMTLARNTYRRLNAGE
modifications: Cercocebus atys
B5: DOMAIN_18979 (protein, listed as Pongo sp.)
chain: CYQDSVTFDDVAVDFTQEEWTLLDSTQRSLYSDVMLENYKNLATVGGQIIKPSLISWLEQEESKTVQGGVLQGRKTQWRGT
B6: DOMAIN_18726 (protein, listed as Myotis davidii)
chain: PNALVTFQDVFVDFSPEELASLSAAQRRLHREVTLENYRNLVSLGYQFPRPDIITQLEEEESSAMEEDSNTKTGPDWETGP
B7: DOMAIN_17801 (protein, listed as Pongo sp.)
chain: EPGAVSFADVAVYFCREEWGCLRPAQRALYRDVMRETYGHLSALGIGGNKPALISWVEEEAELWDPAAQDPEVAKCQTEAD
B8: DOMAIN_17264 (protein)
chain: CEVSVSFEDVTVDFSREEWQHLDPAQRRLYRDVTLENYSHLCSVGYQVPKPEVIFKLEQGEGPWTLEEETPHQSCSDEDMG
modifications: Vicugna pacos
B9: DOMAIN_18670 (protein, listed as Neomonachus schauinslandi)
chain: B8 chain with C1L, E2Q, C42H, E68G, S74G, D79A, M80I
B10: DOMAIN_17548 (protein, listed as Neomonachus schauinslandi)
chain: VQGSMSFEDVIVEFTQDEWQYMSPAQRILYRDVMLENYSHLISVGYCTTKPEMIFKLEQGEEPWSLEEEFLNQRYPGYFSV
B11: DOMAIN_19388 (protein, listed as Physeter macrocephalus)
chain: MTFEDVAVEFTRWEWGQLDPTQKDVYREVMLENFKNLASLGFPMSKPYVICRLEEGEEPCILEREISTGAPADWERRRQAK
B12: DOMAIN_17180 (protein, listed as Zalophus californianus)
chain: FQDSVTFEDVAVRFSSGEWQCLTRAQRHLYADVMLENYGNMISVGFAVPKPPLISHLEQGAEPCVQDLQDGGFLSCSFPVS
B13: DOMAIN_18459 (protein, listed as Monodelphis domestica)
chain: GQEEVAFKDVAVDFTREEWRLLSPPQKELYKEVMLENIRNLLSVGLPAPPEDMISYLEQREAPWMLEQEGLRSYSPGEEIR
B14: DOMAIN_18923 (protein, listed as Callithrix jacchus)
chain: ASGTLTFDDVALYFSEQEWEILEKWQKQMYKQEMKTNYETLDSLGYAFSKPDLITWMEKGRMLLISDQGRLHKTKRTAGPP
B15: DOMAIN_18646 (protein, listed as Monodelphis domestica)
chain: VKEVVTLQDVAVDFTWEEWRLLSPPQKELYREVMLENAQNLLSVGLPAPLEDVLSYLEQRKGPWMLEQKRLRSCCPGEIRL
B16: DOMAIN_17775 (protein, listed as Camelus dromedarius)
chain: MPQGSVSFKDVTVDFTQEEWQQLDSAQKALYRDVMLENYCHFVSVGFHMTKPDMIHKLEQGKELWTTGRIFPSRSYLGESV
B17: DOMAIN_17534 (protein)
chain: SQGSVSFKDVTVDFTQEEWQQLDPAQKALYRDVMLENYCHFVSVGFHMTKPDMIRKLEQGEELWTQRIFPSYSYLAEDGKT
modifications: Cercocebus atys
B18: DOMAIN_18693 (protein, listed as Camelus dromedarius)
chain: GQESVSFKDVTVDFTWDEWLQLTGMQRTLYRDVMLENYSHLVSVGCCITKPEVIFKLEQGEEPWPREGELPGRRDPDRSQE
B19: DOMAIN_20336 (protein, listed as Panthera pardus)
chain: SQGTVSFKDVAVNFTQEEWQYLDLPQRDLYKDVMLENYTNLISVGYQTTKPSVIHKLEQGEEPWMVEREIPNWSYAEETWQ
B20: DOMAIN_21909 (protein, listed as Suricata suricatta)
chain: AHHLVMFRDVAVDFSQDEWECLNSYQRNLYRDVILENYSNLVSVAGCSISKPDVITLLEQGREPWMVVRDERRRRTLDLES
B21: DOMAIN_21095 (protein, listed as Trichechus manatus)
chain: LKASVSFKDVAVELTQEEWQHMGPAQRTLYRDVMLENYSHLVSVGYCIFKPEVIFKLEQGEQPWFLEQEFSNQSYPEDYNI
B22: DOMAIN_22278 (protein, listed as Pteropus vampyrus)
chain: KPEDVSFAEVAVYFSLDEWGYLWPAQRALYRDVMRETYGHFGELGFPGPKPALISWMEQESEAWSPAAQDPEEGESVGGAV
B23: DOMAIN_22459 (protein, listed as Monodelphis domestica)
chain: SQGPVKFEDVAIYLWKEEWELMDSTQKRLYRQVMLETYENVLSVGTPHDKPAMIVHLEQGETAWSPALQRPGKEKGRLHGH
B24: DOMAIN_22483 (protein, listed as Aotus trivirgatus)
chain: TQESLTLEDVAVEFSWEEWQLLDTAQKDLYRDVMVENYNHLVSLGYQTSKPDALSKLAHGQEPWMTDAKIQNKNCPGIRKV
B25: DOMAIN_19563 (protein, listed as Papio anubis)
chain: AQMLVTFKDVAVTFTQEEWRQLDLTQRTLYREVMLETCGLLVSLGHRVPKPELVHLLEHGQELWTVKRGLSDPTCAGDRTQ
B26: DOMAIN_22527 (protein, listed as Tursiops truncatus)
chain: VQASLSFEDVAVHFTWEEWQLLDPSQKDLYRNVMWENYCNLVSVGYQTPKPDSFFQLEQGEPPWTVEGAGQSQTCPGTRAS
B27: DOMAIN_20025 (protein, listed as Carlito syrichta)
chain: LQGSVSFKDVTVDFTQEEWHQLNPAQKALYRDVMLENYCHFISVGFHMTKPDMIRKLEQGEELWTERIFSRQSHLEEDGKA
B28: DOMAIN_22495 (protein, listed as Callorhinus ursinus)
chain: CEGLVSFEDVTMDFSREEWQQLDPAQRCLYWDVMLEIYSHLLSVGYHIPNPEIISRMEKGKKSWIRGAQLPHQRHREVVFG
B29: DOMAIN_22454 (protein, listed as Monodelphis domestica)
chain: AQEVVTFKDVAVDFTREEWCLLSPPQKELYKEVMLENAQNLLSVGLPGPPEDVISYLKQRKDPWMLEQEGLRSCCPEGEIR
B30: DOMAIN_21277 (protein, listed as Aotus trivirgatus)
chain: PQDLMTFDDVAVEFTQWEWGQLNPAQKDLYREVMLENFRNLTLLGLLVSKPYMICQLEEGGEPFMVNTEISVGAHSDWERR
B31: DOMAIN_21583 (protein, listed as Sarcophilus harrisii)
chain: ALESVTFQDVAVNFTHEEWGHLKPAQKDLYREVMMENYQNFVSLGLPFSKPHVISQLEKGEAPWITEKASLVPRVSCQDFF
B32: DOMAIN_19699 (protein, listed as Otolemur garnettii)
chain: B27 chain with H20Q, N23D, I42V, K56R, S70P, R71G, H74Y
B33: DOMAIN_22375 (protein, listed as Tursiops truncatus)
chain: PQGCAISEDVFVYFSREEWVLLDEDQRLLYRDVMLENFALLASLGITSSRSYLVTQLEQGEEPWMPAQVDMTAATEKEAQK
B34: DOMAIN_22311 (protein, listed as Monodelphis domestica)
chain: AQEVVSFKDVAVDFTREEWRLLSPPQKELYKEVMLENARNLLSVGLSAPPEDMFSSLEQREAPWMLEKDDLRSCCPEGKMR
B35: DOMAIN_31643 (protein, listed as Micrurus lemniscatus)
chain: FREVSVYFSEEEWSWLDPDQKALYWEVMLENHRNMASLGDDGQENKDSYELLQGITARDTMETSAIEMEVERYKEKQSDDWNQESSSCTDDSV
B36: DOMAIN_143 (protein, listed as Pan paniscus)
chain: MAAMPLKAQYQEMVTFEDVAVHFTKTEWTGLSPAQRALYRSVMLENFGNLTALGYPVPKPALISLLEGGDMAWGLEAQDDP
B37: DOMAIN_92 (protein, listed as Pan paniscus)
chain: FGNLLGVPWAQGNSALPEGLLSFKDISMEFTWDEWQLLDSTQKYLYRDVILENYHNLISVGYHGTKPDLIFKLEQGEDPWI

tested on: HBEGF locus; assay type: cell-based, human; conditions: high-throughput screen of dXR repression of the HBEGF gene; abundance of each domain in the library before and after diphtheria toxin selection; HEK293T cells

Point of comparison: B15, “Log2 (fold change)” value 2.4678. Against it:
- B1 — higher, 2.8088
- B2 — higher, 2.683
- B3 — lower, 2.0152
- B4 — higher, 3.6469
- B5 — lower, 2.0034
- B6 — higher, 2.9362
- B7 — higher, 2.9733
- B8 — higher, 3.0866
- B9 — higher, 3.1792
- B10 — higher, 2.8002
- B11 — higher, 3.2831
- B12 — higher, 2.945
- B13 — higher, 3.1352
- B14 — lower, 2.2053
- B16 — within 0.2 log units, 2.6595
- B17 — higher, 2.9374
- B18 — higher, 3.0179

same assay, conditions: high-throughput screen of dXR repression of the HBEGF gene; abundance of each domain in the library before vs after diphtheria toxin selection; listed domains met p-value <0.01 and log2(fold change) >2

Point of comparison: B23, “Log2 (fold change)” value 2.9261. Against it:
- B19 — lower, 2.3293
- B20 — higher, 3.2301
- B21 — lower, 2.5003
- B22 — higher, 3.3575
- B24 — lower, 2.1702
- B25 — lower, 2.5522
- B26 — within 0.2 log units, 2.989
- B27 — lower, 2.2451
- B28 — lower, 2.2623
- B29 — lower, 2.6042
- B30 — lower, 2.7115
- B31 — higher, 3.1529
- B32 — within 0.2 log units, 2.8474
- B33 — lower, 2.5484
- B34 — within 0.2 log units, 2.9903

same assay, conditions: high-throughput screen of dXR repression of the HBEGF gene; change in abundance of each domain in the library before and after diphtheria toxin selection

Point of comparison: B35, “Log2 (fold change)” value 3.8782. Against it:
- B36 — lower, 3.63
- B37 — lower, 2.1475
